# Paper PMC10216145
# Molecular target: thrombin (UniProt P00734;P00734 328-363;364-622)
# Assay: electrochemical aptasensor (DPV); immobilized aptamer; signal suppression on thrombin binding; LOD 0.26 fM, range 1.0 fM to 1.0 uM (abstract), not a Kd; Thrombin incubation 40 min at ambient temperature, wash with PBS; DPV in 25 mM PBS pH 7.0, -0.1 to 0.5 V
binder,measurement,value
"GGTTGGTGTGGTTGG (ssDNA, 5'-SH-(CH2)6) [TBA (thrombin aptamer)]",binding result,binds
